Data taken from publication doi:10.1101/783373 (bioRxiv, 2019).

How the values were obtained:
[1] = target: PACRGΔ1-69 Y108ϕ (p-iodo-L-phenylalanine derivative) (human, UniProt Q96M98-2 70-257, Y108ϕ, p-iodo-L-phenylalanine (ϕ) at 108); assay: SEC
[2] = target: PACRGΔ1-69 Y189ϕ (p-iodo-L-phenylalanine derivative) (human, UniProt Q96M98-2 70-257, Y189ϕ, p-iodo-L-phenylalanine (ϕ) at 189); assay: SEC

binding result [1]: binds
binding result [2]: binds
B1: MEIG1 (human), His6 tag cleaved (natural protein)
chain: MASSDVKPKSVSHAKKWSEEIENLYRFQQAGYRDETEYRQVKQVSMVDRWPETGYVKKLQRRDNTFYYYNKQRECDDKEVHKVKIYAY
